Results as given in PMC7110780, “Multimodular fused acetyl–feruloyl esterases from soil and gut Bacteroidetes improve xylanase depolymerization of recalcitrant biomass” (Biotechnology for Biofuels, 2020).

B1: FjCE6 (Flavobacterium johnsoniae UW101) (protein)
chain: SQDPNFHVYLSFGQSNMEGFAKIEPQDKTGVNERFQVLSAVDCPEMGREKGKWYTAVPPLCRCTTGLTPMDYFGRTMISNLPQNIKVGVVNVAVGGCKIELFDKNNFESYVANSPDWLKNIVKQYDGNPYGRLVEMAKIAQKKGVIKGILLHQGESNTGDTLWPQKVKIVYDNLIKDLNLDPKKVPLLSGETVNEDQNGKCGSMNKIIAKLPQVLPNSYIISSKGCKADADFLHFSPEGYRELGKRYADKMLSLSGYMLFNGKE
notes: domain borders not in main text
B2: FjCE1 (Flavobacterium johnsoniae UW101) (protein)
chain: FDEVNANAPQGKVEIVSYESKTVGSTRKATIYTPPGFNKNKKYPVLYLLHGIGGDEKEWLNGGQPNVILDNLYADGKLEPMIVVMPNGRAMKDDRAGGDIMAADKVKAFSVFEKDLLNDLIPFIEKKYPVLKDREHRAIAGLSMGGGQSLNFGLGNLDQFAWVGAFSAAPNTKIGTELLAKPEEAKKKLKLLWISCGDKDWLIENSTRTHDYLAKNNVPHIYYIEPGVHDFKVWKNGLYMFSQFLFKEVDPLVFQKYSISAYTIEK
notes: as for B1

Tests used:
Assay in all cases: purified protein
Format in all cases: biochemical, Flavobacterium johnsoniae
[1] = substrate: CC(=O)Oc1ccc2c(C)cc(=O)oc2c1; settings: 100 mM buffer
[2] = substrate: COC(=O)/C=C/c1cc(OC)c(O)c(OC)c1; settings: pH 6.5, 25 °C, 100 mM buffer
[3] = substrate: COC(=O)/C=C/c1ccc(O)c(O)c1; settings: pH 6.5, 25 °C, 100 mM buffer
[4] = substrate: COC(=O)/C=C/c1ccc(O)c(OC)c1; settings: pH 6.5, 25 °C, 100 mM buffer
[5] = substrate: COC(=O)/C=C/c1ccc(O)cc1; settings: pH 6.5, 25 °C, 100 mM buffer

| Protein | Km ([1]; pH 8, 25 °C) [µM] | kcat ([1]; pH 8, 25 °C) [s⁻¹] | kcat/Km ([1]; pH 8, 25 °C) [M⁻¹ s⁻¹] | Km ([1]; pH 6.5, 25 °C) [µM] | kcat ([1]; pH 6.5, 25 °C) [s⁻¹] | kcat/Km ([1]; pH 6.5, 25 °C) [M⁻¹ s⁻¹] | Km [2] [µM] | kcat [2] [s⁻¹] | kcat/Km [2] [M⁻¹ s⁻¹] | Km [3] [µM] | kcat [3] [s⁻¹] | kcat/Km [3] [M⁻¹ s⁻¹] | Km [4] [µM] | kcat [4] [s⁻¹] | kcat/Km [4] [M⁻¹ s⁻¹] | Km [5] [µM] | kcat [5] [s⁻¹] | kcat/Km [5] [M⁻¹ s⁻¹] |
| --- | --- | --- | --- | --- | --- | --- | --- | --- | --- | --- | --- | --- | --- | --- | --- | --- | --- | --- |
| B1 | 150 ± 20 | 6.7 ± 0.2 | 43400 ± 4400 | – | – | – | – | – | – | – | – | – | – | – | – | – | – | – |
| B2 | – | – | – | 70 ± 10 | 0.61 ± 0.03 | 8700 ± 1700 | 140 ± 20 | 1.8 ± 0.1 | 13000 ± 2200 | 340 ± 100 | 0.83 ± 0.14 | 2700 ± 1000 | 110 ± 20 | 2.5 ± 0.2 | 23100 ± 4500 | 390 ± 120 | 1.5 ± 0.3 | 3900 ± 1400 |
